Patent publication US12281147

What was measured:
human IL-21R (human) [1] = target: human IL-21R (human) (UniProt Q9HBE5); experiment: AlphaSeq yeast mating assay, pH 5 media
human IL-21R (human) [2] = target: human IL-21R (human) (UniProt Q9HBE5); experiment: AlphaSeq yeast mating assay, pH 6 media
human IL-21R (human) [3] = target: human IL-21R (human) (UniProt Q9HBE5); experiment: AlphaSeq yeast mating assay, pH 7 media
human IL-21R (human) [4] = target: human IL-21R (human) (UniProt Q9HBE5); experiment: AlphaSeq yeast mating assay, unbuffered media
[5] = target: wild-type human IL-21R (human) (UniProt Q9HBE5); experiment: AlphaSeq yeast mating assay, pH 5 media
[6] = target: wild-type human IL-21R (human) (UniProt Q9HBE5); experiment: AlphaSeq yeast mating assay, unbuffered media
[7] = target: wild-type human IL-21R (human) (UniProt Q9HBE5); experiment: AlphaSeq yeast mating assay, pH 6 media
[8] = target: human interleukin 21 receptor (IL-21R) (human) (UniProt Q9HBE5); experiment: AlphaSeq yeast mating, unbuffered media
[9] = target: human interleukin 21 receptor (IL-21R) (human) (UniProt Q9HBE5); experiment: AlphaSeq yeast mating, pH 5 media

| Substance | Kd (human IL-21R (human) [1]) [µM] | Kd (human IL-21R (human) [2]) [µM] | Kd (human IL-21R (human) [3]) [µM] | Kd (human IL-21R (human) [4]) [µM] | also measured |
| --- | --- | --- | --- | --- | --- |
| IL-21_A112P (from UniProt Q9HBE4 32-152) (ligand) | 0.058 | 0.021 | 0.08 | 1 | – |
| IL-21_A112R (from UniProt Q9HBE4 32-152) (ligand) | – | – | – | – | Kd [5]: 0.039 µM; Kd [6]: 7.9 µM |
| IL-21_D33Q (from UniProt Q9HBE4 32-152) (ligand) | – | – | – | – | Kd [5]: 0.084 µM; Kd [7]: 0.021 µM; Kd [6]: 7.5 µM |
| IL-21_D33T (from UniProt Q9HBE4 32-152) (ligand) | – | – | – | – | Kd [8]: 15 µM |
| IL-21_D44A (from UniProt Q9HBE4 32-152) (ligand) | 0.14 | 0.052 | 0.24 | 240 | – |
| IL-21_E59S (from UniProt Q9HBE4 32-152) (ligand) | – | – | – | – | Kd [5]: 0.041 µM; Kd [7]: 0.016 µM |
| IL-21_E68K (from UniProt Q9HBE4 32-152) (ligand) | – | – | – | – | Kd [5]: 0.027 µM; Kd [6]: 3.3 µM |
| IL-21_E68R (from UniProt Q9HBE4 32-152) (ligand) | – | – | – | – | Kd [5]: 0.04 µM; Kd [7]: 0.016 µM; Kd [6]: 6.3 µM |
| IL-21_E72I (from UniProt Q9HBE4 32-152) (ligand) | – | – | – | – | Kd [7]: 0.015 µM; Kd [6]: 4.7 µM |
| IL-21_E72T (from UniProt Q9HBE4 32-152) (ligand) | – | 0.027 | 0.057 | 2.8 | – |
| IL-21_F60H (from UniProt Q9HBE4 32-152) (ligand) | 0.062 | 0.015 | 0.035 | 2.4 | – |
| IL-21_F79E (from UniProt Q9HBE4 32-152) (ligand) | 59 | 7 | 6.9 | 110 | – |
| IL-21_F79Y (from UniProt Q9HBE4 32-152) (ligand) | 72 | 2 | 0.53 | 330 | – |
| IL-21_I37K (from UniProt Q9HBE4 32-152) (ligand) | 3.3 | 0.19 | 0.12 | 95 | – |
| IL-21_I37S (from UniProt Q9HBE4 32-152) (ligand) | 16 | 0.53 | 0.32 | 240 | – |
| IL-21_I37V (from UniProt Q9HBE4 32-152) (ligand) | – | – | – | – | Kd [5]: 0.058 µM; Kd [6]: 3.2 µM |
| IL-21_I43M (from UniProt Q9HBE4 32-152) (ligand) | – | – | – | – | Kd [5]: 0.11 µM; Kd [7]: 0.027 µM; Kd [6]: 3.5 µM |
| IL-21_I45G (from UniProt Q9HBE4 32-152) (ligand) | – | 5 | 1.2 | 330 | – |
| IL-21_I96D (from UniProt Q9HBE4 32-152) (ligand) | – | 60 | 35 | 580 | – |
| IL-21_I96P (from UniProt Q9HBE4 32-152) (ligand) | – | 5.7 | 3 | 270 | – |
| IL-21_K131M (from UniProt Q9HBE4 32-152) (ligand) | – | – | – | – | Kd [8]: 27 µM |
| IL-21_L42H (from UniProt Q9HBE4 32-152) (ligand) | – | 67 | 5.4 | 550 | – |
| IL-21_L56F (from UniProt Q9HBE4 32-152) (ligand) | 54 | – | 0.24 | 240 | – |
| IL-21_L120H (from UniProt Q9HBE4 32-152) (ligand) | – | – | – | – | Kd [9]: 0.034 µM |
| IL-21_L152H (from UniProt Q9HBE4 32-151) (ligand) | – | – | – | – | Kd [5]: 0.026 µM; Kd [7]: 0.012 µM; Kd [6]: 4.4 µM |
| IL-21_M36T (from UniProt Q9HBE4 32-152) (ligand) | – | – | – | – | Kd [5]: 0.11 µM; Kd [6]: 3.1 µM |
| IL-21_M39G (from UniProt Q9HBE4 32-152) (ligand) | 150 | 31 | 7.8 | 240 | – |
| IL-21_N54K (from UniProt Q9HBE4 32-152) (ligand) | – | – | – | – | Kd [5]: 0.19 µM; Kd [6]: 8 µM |

| Substance | Kd (human IL-21R (human) [1]) [µM] | Kd (human IL-21R (human) [2]) [µM] | Kd (human IL-21R (human) [3]) [µM] | Kd (human IL-21R (human) [4]) [µM] | also measured |
| --- | --- | --- | --- | --- | --- |
| IL-21_N70H (from UniProt Q9HBE4 32-152) (ligand) | – | – | – | – | Kd [7]: 0.02 µM; Kd [6]: 4.4 µM |
| IL-21_P62S (from UniProt Q9HBE4 32-152) (ligand) | 0.1 | – | 0.027 | 2.8 | – |
| IL-21_P62V (from UniProt Q9HBE4 32-152) (ligand) | 11 | – | 0.12 | 110 | – |
| IL-21_P107Y (from UniProt Q9HBE4 32-152) (ligand) | – | – | – | – | Kd [5]: 0.12 µM; Kd [7]: 0.058 µM; Kd [6]: 6.5 µM |
| IL-21_Q32K (from UniProt Q9HBE4 33-152) (ligand) | 0.027 | 0.012 | 0.028 | 2.7 | – |
| IL-21_Q150D (from UniProt Q9HBE4 32-152) (ligand) | 0.056 | 0.021 | 0.059 | 0.96 | – |
| IL-21_R34Q (from UniProt Q9HBE4 32-152) (ligand) | 0.2 | 0.035 | 0.12 | 1.1 | – |
| IL-21_R34Y (from UniProt Q9HBE4 32-152) (ligand) | – | – | – | – | Kd [5]: 6.7 µM; Kd [7]: 0.35 µM; Kd [6]: 3.4 µM |
| IL-21_R105A (from UniProt Q9HBE4 32-152) (ligand) | 260 | – | 20 | 270 | – |
| IL-21_R139S (from UniProt Q9HBE4 32-152) (ligand) | – | – | – | – | Kd [5]: 0.081 µM; Kd [6]: 3 µM |
| IL-21_S77R (from UniProt Q9HBE4 32-152) (ligand) | – | – | – | – | Kd [8]: 46 µM |
| IL-21_S109M (from UniProt Q9HBE4 32-152) (ligand) | – | 0.43 | 0.081 | 2.5 | – |
| IL-21_S109R (from UniProt Q9HBE4 32-152) (ligand) | – | – | – | – | Kd [5]: 0.036 µM; Kd [7]: 0.015 µM; Kd [6]: 6 µM |
| IL-21_S142H (from UniProt Q9HBE4 32-152) (ligand) | – | – | – | – | Kd [9]: 0.051 µM; Kd [8]: 11 µM |
| IL-21_V46K (from UniProt Q9HBE4 32-152) (ligand) | 340 | – | 28 | 730 | – |
| IL-21_V46Q (from UniProt Q9HBE4 32-152) (ligand) | – | 260 | 71 | 1000 | – |
| IL-21_V53E (from UniProt Q9HBE4 32-152) (ligand) | – | – | – | – | Kd [8]: 31 µM |
| IL-21_V53H (from UniProt Q9HBE4 32-152) (ligand) | – | – | – | – | Kd [8]: 46 µM |
| IL-21_V53N (from UniProt Q9HBE4 32-152) (ligand) | – | – | 0.99 | 560 | – |
| IL-21_V53S (from UniProt Q9HBE4 32-152) (ligand) | 0.047 | 0.02 | 0.056 | 1.4 | – |
| IL-21_V57L (from UniProt Q9HBE4 32-152) (ligand) | – | – | 0.088 | 2.7 | – |
| IL-21_V98K (from UniProt Q9HBE4 32-152) (ligand) | – | 0.094 | 0.25 | 150 | – |
| IL-21_W73G (from UniProt Q9HBE4 32-152) (ligand) | 57 | – | 0.33 | 150 | – |
| IL-21_W73K (from UniProt Q9HBE4 32-152) (ligand) | – | 30 | 10 | 890 | – |
| IL-21_W73Y (from UniProt Q9HBE4 32-152) (ligand) | – | – | – | – | Kd [5]: 0.19 µM; Kd [7]: 0.085 µM |
| IL-21_Y52H (from UniProt Q9HBE4 32-152) (ligand) | 4.4 | – | 0.11 | 69 | – |
| IL-21_Y52N (from UniProt Q9HBE4 32-152) (ligand) | – | – | 0.24 | 110 | – |
